Laboratory results as given in IntAct's records for PubMed 10444103.

Key:
mad14_orysj MADS14 [1] = target: mad14_orysj MADS14 (UniProt Q10CQ1)
mad14_orysj MADS14 [2] = target: mad14_orysj MADS14 (UniProt Q10CQ1); remark: listed apart in the source

Sequence of mad14_orysj MADS14 (Q10CQ1 whole entry): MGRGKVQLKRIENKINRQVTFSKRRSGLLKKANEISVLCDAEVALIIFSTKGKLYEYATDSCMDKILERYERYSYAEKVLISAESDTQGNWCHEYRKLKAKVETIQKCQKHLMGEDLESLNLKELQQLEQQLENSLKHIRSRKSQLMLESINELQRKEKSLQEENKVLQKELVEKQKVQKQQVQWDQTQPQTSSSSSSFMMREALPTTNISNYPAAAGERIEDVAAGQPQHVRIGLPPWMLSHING
Sequence of MADS-box transcription factor 6 (Oryza sativa subsp. japonica (Rice)), Q6EU39 L126R;L134R (Q6EU39 whole entry L126R/L134R): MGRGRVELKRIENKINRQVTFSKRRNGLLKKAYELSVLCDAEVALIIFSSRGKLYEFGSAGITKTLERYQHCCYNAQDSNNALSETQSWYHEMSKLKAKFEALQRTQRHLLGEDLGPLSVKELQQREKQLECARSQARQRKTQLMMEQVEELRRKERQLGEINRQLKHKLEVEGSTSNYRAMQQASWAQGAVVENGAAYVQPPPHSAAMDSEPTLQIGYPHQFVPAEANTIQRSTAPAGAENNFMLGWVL
Sequence of MADS-box transcription factor 6 (Oryza sativa subsp. japonica (Rice)), Q6EU39 L110R;L118R;L159R;L166R (Q6EU39 whole entry L110R/L118R/L159R/L166R): as the sequence (Q6EU39 whole entry L126R/L134R) above, with L110R, L118R, R126L, R134L, L159R, L166R counted along it
Sequence of MADS-box transcription factor 6 (Oryza sativa subsp. japonica (Rice)), Q6EU39 L159R;L166R (Q6EU39 whole entry L159R/L166R): as the sequence (Q6EU39 whole entry L126R/L134R) above, with R126L, R134L, L159R, L166R counted along it
Sequence of MADS-box transcription factor 6 (Oryza sativa subsp. japonica (Rice)), Q6EU39 L110S;L118R (Q6EU39 whole entry L110S/L118R): as the sequence (Q6EU39 whole entry L126R/L134R) above, with L110S, L118R, R126L, R134L counted along it
Sequence of MADS-box transcription factor 6 (Oryza sativa subsp. japonica (Rice)), Q6EU39 L110R;L118R (Q6EU39 whole entry L110R/L118R): as the sequence (Q6EU39 whole entry L126R/L134R) above, with L110R, L118R, R126L, R134L counted along it

Row | Substance | effect of a mutation on the interaction (mad14_orysj MADS14 [1]) | effect of a mutation on the interaction (mad14_orysj MADS14 [2])
1 | MADS-box transcription factor 6 (Oryza sativa subsp. japonica (Rice)), Q6EU39 L159R;L166R | disrupting interaction strength | –
2 | MADS-box transcription factor 6 (Oryza sativa subsp. japonica (Rice)), Q6EU39 L110R;L118R;L159R;L166R | disrupting interaction strength | disrupting interaction strength
3 | MADS-box transcription factor 6 (Oryza sativa subsp. japonica (Rice)), Q6EU39 L110S;L118R | – | decreasing interaction strength
4 | MADS-box transcription factor 6 (Oryza sativa subsp. japonica (Rice)), Q6EU39 L110R;L118R | decreasing interaction strength | –
5 | MADS-box transcription factor 6 (Oryza sativa subsp. japonica (Rice)), Q6EU39 L126R;L134R | disrupting interaction strength | disrupting interaction strength
